# Assay results from patent US20190241669A1 (published 2019).
# Substitutions are numbered along the chain they refer to. Names may count otherwise.
# B1: L1.LGF/L3.PY/H3.AP (antibody, V domains shown)
# VH: EVQLLESGGGLVQPGGSLRLSCAASGFTFGSYAMTWVRQAPGKGLEWVSAISGSGGNTFYADSVKGRFTISRDNSKNTLYLQMNSLRAEDTAVYYCARVSPIAAPMDYWGQGTLVTVSS
# VL: EIVLTQSPGTLSLSPGERATLSCRASQSLGSFYLAWYQQKPGQAPRLLIYGASSRATGIPDRFSGSGSGTDFTLTISRLEPEDFAVYYCQHYPYPPSFTFGQGTKVEIK
# B2: L1.LGF/L3.KW/H3.AP (antibody, V domains shown)
# VH: B1 VH
# VL: B1 VL with Q90K, P93G, Y94W
# B3: L1.GDF/L3.NY/H3.AP (antibody, V domains shown)
# VH: B1 VH
# VL: B1 VL with L29V, S31D, P93N
# B4: L1.LGF/L3.NY/H3.AP (antibody, V domains shown)
# VH: B1 VH
# VL: B1 VL with P93N
# B5: L1.GDF/L3.KW/H3.AP (antibody, V domains shown)
# VH: B1 VH
# VL: B1 VL with L29V, S31D, Q90K, P93G, Y94W
# B6: L3.PY/L3.KF/H2.DY (antibody, V domains shown)
# VH: B1 VH with S52D, G53Y, A104S, P105G
# VL: B1 VL with L29V, G30S, F32S, Q90K, H91F
# notes: IgG
# B7: L3.PY/L3.KY/H2.YQ (antibody, V domains shown)
# VH: B1 VH with G53Y, S54Q, A104S, P105G
# VL: B1 VL with L29V, G30S, F32S, Q90K, H91Y
# notes: IgG
# B8: L3.PY/L3.KF/H2.LT (antibody, V domains shown)
# VH: B1 VH with G53L, S54T, A104S, P105G
# VL: B1 VL with L29V, G30S, F32S, Q90K, H91F
# notes: IgG
# B9: L3.PY/L3.KF/H3.YA (antibody, V domains shown)
# VH: B1 VH with A103Y, P105G
# VL: B1 VL with L29V, G30S, F32S, Q90K, H91F
# notes: IgG
# B10: L3.PY/L3.KY/H2.QR (antibody, V domains shown)
# VH: B1 VH with S63Q, V64R, A104S, P105G
# VL: B1 VL with L29V, G30S, F32S, Q90K, H91Y
# notes: IgG
# B11: L3.PY/L3.KF/H2.QL (antibody, V domains shown)
# VH: B1 VH with S63Q, V64L, A104S, P105G
# VL: B1 VL with L29V, G30S, F32S, Q90K, H91F
# notes: IgG
# B12: L3.PY/L3.KY/H3.TAQ (antibody, V domains shown)
# VH: B1 VH with A97T, P105Q
# VL: B1 VL with L29V, G30S, F32S, Q90K, H91Y
# notes: IgG
# B13: L3.PY/L3.KF/H3.TAQ (antibody, V domains shown)
# VH: B1 VH with A97T, P105Q
# VL: B1 VL with L29V, G30S, F32S, Q90K, H91F
# notes: IgG
# B14: L3.PY/L3.KY/H2.QL (antibody, V domains shown)
# VH: B1 VH with S63Q, V64L, A104S, P105G
# VL: B1 VL with L29V, G30S, F32S, Q90K, H91Y
# notes: IgG
# B15: L3.PY/L3.KY/H2.HA (antibody, V domains shown)
# VH: B1 VH with G53H, S54A, A104S, P105G
# VL: B1 VL with L29V, G30S, F32S, Q90K, H91Y
# notes: IgG
# B16: L3.PY/L3.KF/H2.YQ (antibody, V domains shown)
# VH: B1 VH with G53Y, S54Q, A104S, P105G
# VL: B1 VL with L29V, G30S, F32S, Q90K, H91F
# notes: IgG
# B17: L3.PY/L3.KF/H3.AE (antibody, V domains shown)
# VH: B1 VH with P105E
# VL: B1 VL with L29V, G30S, F32S, Q90K, H91F
# notes: IgG
# B18: L3.PY/L3.KY/H3.YA (antibody, V domains shown)
# VH: B1 VH with A103Y, P105G
# VL: B1 VL with L29V, G30S, F32S, Q90K, H91Y
# notes: IgG
# B19: L3.PY/L3.KY/H2.DY (antibody, V domains shown)
# VH: B1 VH with S52D, G53Y, A104S, P105G
# VL: B1 VL with L29V, G30S, F32S, Q90K, H91Y
# notes: IgG
# B20: L3.PY/L3.KY/H2.LT (antibody, V domains shown)
# VH: B1 VH with G53L, S54T, A104S, P105G
# VL: B1 VL with L29V, G30S, F32S, Q90K, H91Y
# notes: IgG
# B21: P5AC1-V1 BCMA specific CAR (protein)
# chain: EVQLLESGGGLVQPGGSLRLSCAASGFTFSSYAMNWVRQAPGKGLEWVSAILSSGGSTYYADSVKGRFTISRDNSKNTLYLQMNSLRAEDTAVYYCARYWPMDIWGQGTLVTVSSGGGGSGGGGSGGGGSEIVLTQSPGTLSLSPGERATLSCRGGQSVSSSYLAWYQQKPGQAPRLLMYDASIRATGIPDRFSGSGSGTDFTLTISRLEPEDFAVYYCQQYQSWPLTFGQGTKVEIKGLAVSTISSFFPPGYQIYIWAPLAGTCGVLLLSLVITLYCKRGRKKLLYIFKQPFMRPVQTTQEEDGCSCRFPEEEEGGCELRVKFSRSADAPAYQQGQNQLYNELNLGRREEYDVLDKRRGRDPEMGGKPRRKNPQEGLYNELQKDKMAEAYSEIGMKGERRRGKGHDGLYQGLSTATKDTYDALHMQALPPR
# B22: COM22-V1 BCMA specific CAR (protein)
# chain: EVQLLESGGGLVQPGGSLRLSCAASGFTFSSYAMNWVRQAPGKGLEWVSAISDSGGSRWYADSVKGRFTISRDNSKNTLYLQMNSLRAEDTAVYYCTRYWPMDIWGQGTLVTVSSGGGGSGGGGSGGGGSEIVLTQSPGTLSLSPGERATLSCRASVRVSSTYLAWYQQKPGQAPRLLMYDASIRATGIPDRFSGSGSGTDFTLTISRLEPEDFAVYYCQQYMKWPLTFGQGTKVEIKGLAVSTISSFFPPGYQIYIWAPLAGTCGVLLLSLVITLYCKRGRKKLLYIFKQPFMRPVQTTQEEDGCSCRFPEEEEGGCELRVKFSRSADAPAYQQGQNQLYNELNLGRREEYDVLDKRRGRDPEMGGKPRRKNPQEGLYNELQKDKMAEAYSEIGMKGERRRGKGHDGLYQGLSTATKDTYDALHMQALPPR
# B23: P5A-V1 BCMA specific CAR (protein)
# chain: B21 chain with L52S, S53D, G155A, G156S, Q223G
# B24: P5AC16-V1 BCMA specific CAR (protein)
# chain: B21 chain with L52S, S53D, S54F, G155A, G156S, S161D, S162L, S224T
# B25: PC1C12-V1 BCMA specific CAR (protein)
# chain: EVQLLESGGGLVQPGGSLRLSCAASGFTFSSYPMSWVRQAPGKGLEWVSAIGGSGGWSYYADSVKGRFTISRDNSKNTLYLQMNSLRAEDTAVYYCARYWPMDSWGQGTLVTVSSGGGGSGGGGSGGGGSEIVLTQSPGTLSLSPGERATLSCWLSQSVSSTYLAWYQQKPGQAPRLLIYDASSRAPGIPDRFSGSGSGTDFTLTISRLEPEDFAVYYCQQYSEWPLTFGQGTKVEIKGLAVSTISSFFPPGYQIYIWAPLAGTCGVLLLSLVITLYCKRGRKKLLYIFKQPFMRPVQTTQEEDGCSCRFPEEEEGGCELRVKFSRSADAPAYQQGQNQLYNELNLGRREEYDVLDKRRGRDPEMGGKPRRKNPQEGLYNELQKDKMAEAYSEIGMKGERRRGKGHDGLYQGLSTATKDTYDALHMQALPPR
# Target: Human BCMA (human) (UniProt Q02223)
# Assay: SPR, IgG immobilised, huBCMA analyte, 25 C
Binder,Kd [nM],T½ [min],koff [s⁻¹],kon [M⁻¹ s⁻¹]
B1,2.12,11.9,0.000969,457000
B2,2.44,5.1,0.00227,928000
B3,1,8.21,0.00141,1.41e+06
B4,0.57,21.7,0.000533,936000
B5,3.93,2.51,0.00461,1.17e+06

# Target: Human BCMA (human) (UniProt Q02223)
# Assay: SPR, IgG immobilised, huBCMA analyte, 37 C
Binder,Kd [nM],T½ [min],koff [s⁻¹],kon [M⁻¹ s⁻¹]
B6,0.67,6.35,0.00182,2.74e+06
B7,0.77,7.02,0.00165,2.14e+06
B8,0.69,6.05,0.00191,2.75e+06
B9,0.47,7.85,0.00147,3.12e+06
B10,0.34,11.7,0.00099,2.95e+06
B11,0.6,9.26,0.00125,2.07e+06
B12,0.23,17.8,0.000649,2.79e+06
B13,0.58,7.12,0.00162,2.82e+06
B14,0.57,5.56,0.00208,3.65e+06
B15,0.49,7.1,0.00163,3.29e+06
B16,1.14,5.18,0.00223,1.96e+06
B17,0.51,7.44,0.00155,3.07e+06
B18,0.28,12.7,0.000912,3.3e+06
B19,0.2,18,0.000642,3.19e+06
B20,0.31,12.8,0.000906,2.92e+06

# Target: T1, cynomolgus monkey BCMA (cynomolgus monkey, UniProt A0A2K5UD97 1-53)
# T1 construct: Soluble analyte in SPR; construct not described; also called cyBCMA; Cyno BCMA
# T1 sequence (A0A2K5UD97 entry or part of it): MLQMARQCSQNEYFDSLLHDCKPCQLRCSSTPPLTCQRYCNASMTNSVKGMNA
# Assay: SPR, IgG on chip, cyBCMA analyte, 37C
Binder,Kd [nM],T½ [min],koff [s⁻¹],kon [M⁻¹ s⁻¹]
B6,1.77,3.14,0.00368,2.08e+06
B7,2.04,4.47,0.00258,1.27e+06
B8,2.16,2.8,0.00413,1.91e+06
B9,3.78,1.45,0.00796,2.1e+06
B10,3.78,1.49,0.00774,2.05e+06
B11,2.18,3.73,0.0031,1.42e+06
B12,1.06,6.03,0.00192,1.81e+06
B13,0.95,6.05,0.00191,2.01e+06
B14,1.49,2.83,0.00409,2.75e+06
B15,1.4,3.63,0.00318,2.28e+06
B16,3.55,2.3,0.00501,1.41e+06
B17,3.05,2.05,0.00564,1.85e+06
B18,2.33,2.7,0.00428,1.84e+06
B19,1.24,4.75,0.00243,1.96e+06
B20,1.27,4.98,0.00232,1.82e+06

# Target: human BCMA (B-cell maturation antigen) (human) (UniProt Q02223)
# Sequence (Q02223 other isoform, or with tags, fused parts or gaps): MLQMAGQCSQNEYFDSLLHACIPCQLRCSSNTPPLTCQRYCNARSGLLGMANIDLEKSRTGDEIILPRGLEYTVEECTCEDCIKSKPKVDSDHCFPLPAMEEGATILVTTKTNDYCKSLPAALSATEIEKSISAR
# Assay: cell-based or functional assay
Binder,"% CD107a+ (in CD8+) (degranulation, CAR-T cells with MM1S cells, Donor 2) [%]","MFI CD107a+ (degranulation, CAR-T cells with MM1S cells, Donor 2) [MFI]","% CD107a+ (in CD8+) (degranulation, CAR-T cells with MM1S cells, Donor 3) [%]","MFI CD107a+ (degranulation, CAR-T cells with MM1S cells, Donor 3) [MFI]"
B21,68.6,2190,–,–
B22,–,–,76.1,2220
B23,77.6,2670,–,–
B24,61.6,1860,–,–
B25,–,–,68.2,1960
